The values below are quoted from earlier work in patent publication US20030003565A1, “Functional lentiviral vector from an MLV-based backbone” (priority 2000, published 2003).

For the data set the following is noted: patients with septic shock, constant infusion for three days; 44% with placebo infusions.

B1: IL-1R: recombinant IL-1R given as constant infusion to patients with septic shock (protein, UniProt P14778 18-336, looked up)
extracellular domain: LEADKCKEREEKIILVSSANEIDVRPCPLNPNEHKGTITWYKDDSKTPVSTEQASRIHQHKEKLWFVPAKVEDSGHYYCVVRNSSYCLRIKISAKFVENEPNLCYNAQAIFKQKLPVAGDGGLVCPYMEFFKNENNELPKLQWYKDCKPLLLDNIHFSGVKDRLIVMNVAEKHRGNYTCHASYTYLGKQYPITRVIEFITLEENKPTRPVIVSPANETMEVDLGSQIQLICNVTGQLSDIAYWKWNGSVIDEDDPVLGEDYYSVENPANKRRSTLITVLNISEIESRFYKHPFTCFAKNTHGIDAAYIQLIYPVTNFQK
modifications: extracellular domain
For the molecule B1, the 28 day mortality is reported as 16%.
